Laboratory results: PMC4429112, “Characterization of a Highly pH Stable Chi-Class Glutathione S-Transferase from Synechocystis PCC 6803” (PLoS ONE, 2015)

Assays:
purified protein = substrate: S=C=NCCc1ccccc1; test: purified protein; assay type: biochemical, Synechocystis sp. PCC 6803; set-up: Vmax: unit not given here; conditions: co-substrate 1 mM GSH, 50 mM potassium phosphate pH 6.5, 150 mM NaCl, 30 °C
[1] = molecular target: the molecule itself; test: SEC; Superdex 200 10/300 GL, 20 mM phosphate buffer pH 8.0, 150 mM NaCl, 2 mM GSH, 0.5 mL/min, 25°C; calibrated with molecular weight standards

B1: Glutathione S-transferase sll0067 from Synechocystis PCC 6803 (enzyme, UniProt Q55139 1-184, looked up)
chain: MIKLYGAPQSRASIIQWYLEELSLPYEFVNVNLKEGEHRQAPYLAINPFGKVPAIADGNFHLWESGAILLYLAEKASTIPADAQARALVNQWILFANSTLANGLFIEAVREKEMPRLLQSLEKILGRSPFILGEKFSVVDVAVGSILAYVPIMLKLNFDDYPAVAAYVQGLVQRPAFQASIGAR
notes: gene of 0.55 kb amplified from genomic DNA with primers from the ATG to the stop codon; subunit of about 20 kDa; Cloned at BamHI and HindIII sites of pQE30 and purified on Ni-NTA; also called GST sll0067; recombinant sll0067; source: E. coli M15, purified (Ni-NTA agarose)
Work on B1 yielded a Km (purified protein) of 319.3 ± 33 µM, a Vmax (purified protein) of 21.8 and a kcat (purified protein) of 15.2 ± 0.58 s⁻¹. For the same protein, the kcat/Km (purified protein) was 47500 ± 620 M⁻¹ s⁻¹ and the “stoichiometry N” value [1] was 2.
